In this assay the target is rabbit skeletal muscle actin (rabbit), P68135. Briefly: cross-linking. To be noted: remark: other sources report otherwise.

This note sets out measurements from PMC2112703.

B1: depactin (actin-depolymerizing protein from starfish oocytes), P20690 1-150 (natural protein)
chain: PQSGTALDENVKEEIRAFKMDQSKVKVPWMLLEIVQNDDRIDVVKVTKKAGPSDNLETLREELKQREVVYFVLDYEPSEEKRAKHNIPKGKTYPLTCFWSMETANIKLKMKYSSTVGTLKSATSTLKTYLEAHDFDDLSEEAIGDKIKNF
B1: the stoichiometry N is 1.
